Results on 55 substances are retold here after the supplement of paper PMC12042874.

± gives the uncertainty stated by the source.

The data set is described as follows: amyloid nucleation score (Sup35N fusion, yeast selection) (log enrichment); library NNK3; higher = more nucleation; inactive = no reads after selection. Summed up: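 DiMSum was used to calculate nucleation scores as log enrichment of output over input reads, centred on the mode score of non-aggregating sequences. Sequences with fewer than 100 input reads were not scored. Input and output came from Illumina sequencing of plasmid inserts in psi-negative yeast expressing peptides of 20 random codons fused to Sup35N, induced 24 hours with 100 μM copper sulfate and then grown 7 days at 30°C on medium lacking adenine and uracil.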
As to NVLCSFYLMYGLTSAWSVS, the amyloid nucleation score result is “inactive”. In the case of NVLCSVRC, the amyloid nucleation score result is “inactive”. Under NVLKSRIGRFIMQIWYTNKW stands “inactive”; under NVRGDSRA, “inactive”.

NVSFCDDASARANVYHLGKS: the amyloid nucleation score entry is “inactive”. The figure for NVVCSTARIEKPMGVLCFMF is 1.92 ± 0.092; for NWDRGLTCHMYRFSNWRWGS it is “inactive”. Under NWLMSTTFRAYGV stands “inactive”.

In the case of NWLSMQRTLFWP, the amyloid nucleation score is -0.38 ± 0.5. In turn, NWYVECYITYSLVLYLANDS had an amyloid nucleation score of 1.69 ± 0.066. The entry for NYEARLSG is “inactive”; for NYFYGYQACVVHGISFTMGQ it is 0.956 ± 0.19. The figure for NYLLEEEYMISCIEAITLQP is -0.345 ± 0.82. Consider NYLYPKLITYYLTSGLRWII, for which the amyloid nucleation score result is “inactive”. The entry for NYVMRILILCSNGWLGRECV is “inactive”; for NYVTLKSKGITMSWLLLDYR it is “inactive”. The entry for PAERYKRSSLAKSYRLNYRS is “inactive”; for PAQSQAYVLKAGGPRLDGRV it is “inactive”. The entry for PCILPKRTRIIVR is “inactive”; for PCLSDPSYIELNKLASVFTG it is “inactive”. Regarding PCSYLCSRVFIIC, the amyloid nucleation score result is “inactive”. The entry for PCTMDESRYLVMYFHFPMSV is “inactive”. Under PCYDWCLQSGR stands “inactive”. Under PDAHTKMT stands 0.603 ± 0.27; under PDDKLM, “inactive”. Turning to PDVDLTTMLNNNMNYMYVKI, the amyloid nucleation score entry was “inactive”. On to PDVNVRGGGQLVV, for which the amyloid nucleation score result was “inactive”.

As to PEGVSGIAE, the amyloid nucleation score entry was “inactive”. Under PERWSMPYIPSDLYKCLLNQ stands “inactive”. The entry for PFAST is “inactive”; for PFGPHYNPTM it is “inactive”. As to PFLPAANNCVKQRCCFSGAL, the amyloid nucleation score result was “inactive”. Under PFNPSYIFRLLYL stands “inactive”; under PFPGRTLKWNLYTSQFFMAG, “inactive”; under PFPHKDQYHGGGKWPDE, “inactive”. Under PFSFKLPR stands “inactive”; under PFSRTERRFYK, -0.463 ± 1.7. The entry for PFWVTVYMDILLVKQQPLSV is “inactive”; for PGFSLFLGLRSVWKHFFCFR it is “inactive”; for PGNNFKNAAESFRKAYMCRR it is “inactive”.

Regarding PGYGS, the amyloid nucleation score result is “inactive”. Under PHMSLKTFSDS stands “inactive”; under PHVLVESLW, “inactive”. The entry for PIFHGD is “inactive”; for PIIHGCDDLRDFFIARICIS it is “inactive”; for PISLCSWATRFCSYFDKHKL it is “inactive”. The figure for PITDNHFG is -0.697 ± 1.4; for PIVEYVFTPMF it is “inactive”. Turning to PIWTHFRGPCGVEAIRETRV, the amyloid nucleation score result is “inactive”. The entry for PKFYH is “inactive”. The substance PKGEGIMISLFLDCTRLVNG registered an amyloid nucleation score of 2.11 ± 0.077. The entry for PKIAGFSGGTCTVA is “inactive”; for PKQSIDCCHNWGDGNCFIVV it is “inactive”. The entry for PKSFWVLSPIDLVIVVQVRQ is “inactive”; for PKSLLVPIIRPMQVWRKFDL it is “inactive”.
